Data on 2 molecules can be found in patent US20120122765A1, “COMPOUNDS AND RELATED METHODS FOR MANIPULATING PARP-1-DEPENDENT CELL DEATH” (priority 2010, published 2012).

For the experiment, the system named is PAR. The experiment in a line: PAR overlay assay of full length AIF and mutants. Format: binding. On the procedure:
The following experiment was performed to confirm whether AIF in fact binds to PAR. Applicants performed 3 trials of an overlay assay on recombinant AIF with affinity-purified biotin-labeled PAR. Histone H3, which binds to PAR with high affinity, was included as a positive control and bovine serum albumin (“BSA”) was included as a negative control, as described by P. Chang et al. (Nat Cell Bio, 2005). FIG. 1B depicts three photos side by side for gels representative of all trials for these overlay assays. […] Thus, Applicants took the results of these two tests as confirming that AIF binds to PAR in vitro.
To further study these potential AIF PBMs, Applicants performed the following experiment to examine the effect of mutating AIFm amino acids 222-244, 441-463, and/or 567-592 to poly-alanine on the ability of AIF to bind PAR. FIG. 6 comprises black and white photographs of representative gels from an overlay assay of His-tagged WT-AIF, AIFm222-244, AIFm441-463, AIFm567-592, AIFΔ567-592 (i.e., a mutant lacking AAs 567-592), and AIF(K254A, R264A) (i.e., mutating K to A at 254 and R to A at 264) mutants with ^32P-labeled automodified PARP-1 (equivalent to 100 nM of PAR), purified ^32P-labeled PAR (100 nM), or purified ^32P-labeled PAR with either a 100-fold excess of DNA or cold PAR. […] The same can be assumed to corresponding sequences for other species, such as those identified in FIG. 4.
Additionally, to exclude the possibility that PAR polymer is binding to AIF through its DNA-binding domain, PAR polymer binding was assessed against the full length AIF DNA-binding mutant AIFK254A;R264A as described by H Cande et al. (Nat Struct Biol, 2002).
Finally, Human AIF (“AIFH”) is known to bind to DNA through a groove between the FAD-binding domain (“D1”) and C-terminal domain (“D3”). A mutant form of AIFH in which lysine 255 is substituted with alanine and arginine 265 is substituted with alanine (AIFK255A;R265A) completely lacks DNA binding. To investigate the possible contribution of the AIF DNA-binding domain to PAR binding, Applicants assessed PAR binding to AIFm mutated in the same way (AIFK254A;R264A). […] Thus, Applicants concluded that the AIF PAR-binding site is separable from its DNA-binding site, meaning that such binding could be inhibited by genetically modifying AIF without impacting the natural DNA binding capabilities of AIF or potentially by otherwise inhibiting the binding action of the PBMs.

B1: AIF-Qm: full length mouse AIF, arginine 588, lysine 589, lysine 592 and arginine 583 substituted with alanines (protein, UniProt Q9Z0X1 1-612, looked up, variant R583A R588A K589A K592A)
chain: MFRCGGLAGAFKQKLVPLVRTVYVQRPKQRNRLPGNLFQQWRVPLELQMARQMASSGSSGGKMDNSVLVLIVGLSTIGAGAYAYKTIKEDQKRYNERVMGLGLSPEEKQRRAIASATEGGSVPQIRAPSHVPFLLIGGGTAAFAAARSIRARDPGARVLIVSEDPELPYMRPPLSKELWFSDDPNVTKTLQFRQWNGKERSIYFQPPSFYVSAQDLPNIENGGVAVLTGKKVVHLDVRGNMVKLNDGSQITFEKCLIATGGTPRSLSAIDRAGAEVKSRTTLFRKIGDFRALEKISREVKSITVIGGGFLGSELACALGRKSQASGIEVIQLFPEKGNMGKILPQYLSNWTMEKVKREGVKVMPNAIVQSVGVSGGRLLIKLKDGRKVETDHIVTAVGLEPNVELAKTGGLEIDSDFGGFRVNAELQARSNIWVAGDAACFYDIKLGRRRVEHHDHAVVSGRLAGENMTGAAKPYWHQSMFWSDLGPDVGYEAIGLVDSSLPTVGVFAKATAQDNPKSATEQSGTGIRSESETESEASEITIPPSAPAVPQVPVEGEDYGKGVIFYLRDKVVVGIVLWNVFNAMPIAAAIIADGEQHEDLNEVAKLFNIHED
modifications: full-length
notes: full length mouse AIF, arginine 588, lysine 589, lysine 592 and arginine 583 substituted with alanines
In the case of B1, the “reduced PAR binding” value (radioactive signal normalized to WT-AIF) is on record as 90%.

B2: AIFm441-463: His-tagged mouse AIF with amino acids 441 to 463 mutated to poly-alanine (protein)
chain: MFRCGGLAGAFKQKLVPLVRTVYVQRPKQRNRLPGNLFQQWRVPLELQMARQMASSGSSGGKMDNSVLVLIVGLSTIGAGAYAYKTIKEDQKRYNERVMGLGLSPEEKQRRAIASATEGGSVPQIRAPSHVPFLLIGGGTAAFAAARSIRARDPGARVLIVSEDPELPYMRPPLSKELWFSDDPNVTKTLQFRQWNGKERSIYFQPPSFYVSAQDLPNIENGGVAVLTGKKVVHLDVRGNMVKLNDGSQITFEKCLIATGGTPRSLSAIDRAGAEVKSRTTLFRKIGDFRALEKISREVKSITVIGGGFLGSELACALGRKSQASGIEVIQLFPEKGNMGKILPQYLSNWTMEKVKREGVKVMPNAIVQSVGVSGGRLLIKLKDGRKVETDHIVTAVGLEPNVELAKTGGLEIDSDFGGFRVNAELQARSNIWVAGDAACAAAAAAAAAAAAAAAAAAAAAAAAGENMTGAAKPYWHQSMFWSDLGPDVGYEAIGLVDSSLPTVGVFAKATAQDNPKSATEQSGTGIRSESETESEASEITIPPSAPAVPQVPVEGEDYGKGVIFYLRDKVVVGIVLWNVFNRMPIARKIIKDGEQHEDLNEVAKLFNIHED
modifications: left off: small tags and cut ends
notes: His-tagged mouse AIF with amino acids 441 to 463 mutated to poly-alanine
In the case of B2, the “binding to 32P-labeled automodified PARP-1 or purified 32P-labeled PAR” value (His-tagged proteins, overlay assay, 100 nM PAR) was “comparable binding to that of unmutated WT-AIFm”. Moreover, the “effect of hundred fold excess of salmon sperm DNA on PAR binding” value (overlay assay, 32P-labeled PAR) is listed as “fails to disrupt”. Further, where the note is “salmon sperm DNA at 760 μM”, the “effect of salmon sperm DNA on PAR binding” value is recorded as “failed to disrupt PAR binding”.
